Target: acetylated α-tubulin
Assay: cell-based or functional assay

decrease in degree of acetylation of α-tubulin (Western blot of HeLa cells overexpressing HDAC6): 50%
Substance: histone deacetylase 6 (HDAC6), full-length, His6 fused at N-terminal (from UniProt Q9UBN7 1-1215)

From patent publication US20030216345A1
